System: rabbit anti-Amb a I polyclonal antibody
Test: Western blot with rabbit anti-Amb a I polyclonal antibody (FIG. 17)
Type: binding
Excerpt: As is also represented in FIG. 1A, rabbit polyclonal antibodies were produced using the King Antigen E preparation. […] These antibodies were also shown, using a similar technique, to bind to the affinity purified Amb a I described previously (FIG. 17).
It is clear from the antibody reactivity that the 4B5/B7 affinity purified Amb a I has a recognition pattern similar to that of the Amb a I of pollen and skin test reagent with both rabbit polyclonal anti-Amb a I and JB1E3-4 anti-Amb a I monoclonal antibody (FIG. 17).
Affinity purified Amb a I was electrophoresed, Western transferred (Towbin et al., Proc. Natl. Acad. Sci. USA, 76:4350 (1979)) and probed with a variety of antibodies, including IgE from an allergic patient (FIG. 17). In pollen extract Amb a I is not only present as an intact 38-KD species, but also characterized by its component 26KD alpha chains and 12-KD beta chains which are formed by enzymatic cleavage. The intact 38-KD species and the alpha chain are clearly detected using rabbit anti-Amb a I, polyclonal affinity purified anti-RAE 16 and monoclonal anti-Amb a I JBIE3-4 (FIG. 17); RAE 16 peptide has the sequence RTDKDLLENGAIC derived from amino-acids 343-353 of Amb a IB, FIG. 16). […]

B1: affinity purified Amb a I: protein affinity purified from pollen extract with monoclonal antibody 4B5/B7 (protein)
chain: AEDLQEILPVNETRRLTTSGAYNIIDGCWRGKADWAENRKALADCAQGFGKGTVGGKDGDIYTVTSELDDDVANPKEGTLRFGAAQNRPLWIIFERDMVIRLDKEMVVNSDKTIDGRGAKVEIINAGFTLNGVKNVIIHNINMHDVKVNPGGLIKSNDGPAAPRAGSDGDAISISGSSQIWIDHCSLSKSVDGLVDAKLGTTRLTVSNSLFTQHQFVLLFGAGDENIEDRGMLATVAFNTFTDNVDQRMPRCRHGFFQVVNNNYDKWGSYAIGGSASPTILSQGNRFCAPDERSKKNVLGRHGEAAAESMKWNWRTNKDVLENGAIFVASGVDPVLTPEQSAGMIPAEPGESALSLTSSAGVLSCQPGAPC
  Binding by rabbit anti-Amb a I polyclonal antibodies (in words): bind

Source: patent US6335019B1, “Methods for treating sensitivity to protein allergen using peptides which include a T cell epitope recognized by a T cell receptor specific for the protein allergen” (Immulogic Pharmaceutical Corp., priority 1989, dated 2002)
